Results on two molecules are retold here after publication PMC8602290, “G3BP1 inhibits Cul3^SPOP to amplify AR signaling and promote prostate cancer” (Nature Communications, 2021).

Assay [1] deals with T1, His G3BP1 protein (affinity-purified) (UniProt Q13283 1-466).
T1 construct: G3BP1, recombinant His-tagged protein
The assay is described as follows: co-IP; in vitro binding assay with affinity-purified proteins: 4 ug His-SPOP with 0.125, 0.25 or 0.75 ug His G3BP1 in 1 ml pulldown buffer, 4 C, 60 min, then 0.56 ug Myc-DEK; IP with anti-SPOP and protein G agarose; wash 50 mM Tris pH 7.5, 200 mM NaCl. The following applies: both partners purified.

For assay [2], the target named is T2, Myc-DEK protein (affinity-purified) (UniProt P35659 1-375).
T2 construct: DEK, recombinant Myc-tagged protein
T2 sequence (looked up): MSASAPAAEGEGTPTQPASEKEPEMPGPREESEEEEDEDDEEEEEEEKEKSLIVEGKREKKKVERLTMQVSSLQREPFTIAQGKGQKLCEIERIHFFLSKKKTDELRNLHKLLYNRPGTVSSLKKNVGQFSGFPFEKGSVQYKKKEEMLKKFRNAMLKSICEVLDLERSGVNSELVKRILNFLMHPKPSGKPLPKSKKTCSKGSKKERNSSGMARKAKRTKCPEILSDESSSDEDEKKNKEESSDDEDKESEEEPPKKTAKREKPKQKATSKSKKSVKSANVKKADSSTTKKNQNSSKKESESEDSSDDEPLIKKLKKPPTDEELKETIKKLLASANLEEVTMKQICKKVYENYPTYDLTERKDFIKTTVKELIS
Described as above. Particulars: both partners purified.

Assay [3] addresses T3, Speckle-type POZ protein (SPOP), endogenous in 22Rv1 cells (human (endogenous in 22Rv1), UniProt O43791 1-374).
T3 construct: SPOP, endogenous protein of human 22Rv1 prostate cancer cells; also called endogenous SPOP; source: endogenous, 22Rv1 lysate or cells
The assay is described as follows: proximity ligation; 22Rv1 cells transfected with FLAG-G3BP1 constructs; Duolink II kit, antibodies against FLAG-M2 and SPOP (endogenous); percentage of cells with signal. Particulars: partners not purified.

B1: His-SPOP protein (affinity-purified) (natural protein, UniProt O43791 1-374, looked up)
chain: MSRVPSPPPPAEMSSGPVAESWCYTQIKVVKFSYMWTINNFSFCREEMGEVIKSSTFSSGANDKLKWCLRVNPKGLDEESKDYLSLYLLLVSCPKSEVRAKFKFSILNAKGEETKAMESQRAYRFVQGKDWGFKKFIRRDFLLDEANGLLPDDKLTLFCEVSVVQDSVNISGQNTMNMVKVPECRLADELGGLWENSRFTDCCLCVAGQEFQAHKAILAARSPVFSAMFEHEMEESKKNRVEINDVEPEVFKEMMCFIYTGKAPNLDKMADDLLAAADKYALERLKVMCEDALCSNLSVENAAEILILADLHSADQLKTQAVDFINYHASDVLETSGWKSMVVSHPHLVAEAYRSLASAQCPFLGPPRKRLKQS
notes: SPOP, recombinant His-tagged protein
Take B1: the binding result in assay [1] and in assay [2] was “binds” each time.

B2: FLAG-G3BP1^RRM (22Rv1) (domain or fragment, UniProt Q13283 338-466, looked up)
chain: DSHQLFIGNLPHEVDKSELKDFFQSYGNVVELRINSGGKLPNFGFVVFDDSEPVQKVLSNRPIMFRGEVRLNVEEKKTRAAREGDRRDNRLRGPGGPRGGLGGGMRGPPRGGMVQKPGFGVGRGLAPRQ
notes: also called FLAG-RRM; G3BP1^RRM-RGG; source: 22Rv1, transfected, in cells or lysate
Consider B2, for which the “percentage of cells with PLA positive signal” value in assay [3] is 70%.
